The DeepSol protein solubility set

Experiment: soluble on expression in E. coli; label from the status in PepcDB or PDB records
For “MALIVQKFGGTSVGTVERIQAVAQRIKRTVQGGNSLVVVVSAMGKSTDVLVDLAQQISPNPCRREMDMLLSTGEQVSIALLSLALQEIDQPAISLTGAQVGIVTEAEHSRARILEIRPDRLEHHLREGKVVVVAGFQGISSVEHLEITTLGRGGSDTSAVALAAALKADFCEIYTDVPGILTTDPRLVPEAQLMAEITCDEMLELASLGAKVLHPRAVEIARNYGIPLVVRSSWSDEPGTKVVAPPVQNRSLVGLEIAKAVDGVEYDADQAKVALLRVPDRPGVASKLFRDIAQQQVDIDLIIQSIHDGNSNDIAFTVVKDLLNTAEAVTSAIAPALRSYPEADQEAEIIVEKGIAKIAIAGAGMIGRPGIAAKMFKTLADVGVNIEMISTSEVKVSCVIDQRDADRAIAALSNAFGVTLSPPKNQTDTSHLPAVRGVALDQDQAQIAIRHVPDRPGMAAQLFTALAEANISVDMIIQSQRCRINQGTPCRDIAFMVAEGDSSQAEAILQPLIKDWLDAAIVVNKAIAKVSIVGSGMIGHPGVAAHFFAALAQENINIEMIATSEIKISCVVPQDRGVDALKAAHSAFNLAGTKTVTVPA”, the “soluble on expression in E. coli” value was “soluble”. In the case of “MALLILFFLLGLSFSLEVFSEKLEIKENEIIAEGDAEAYYKNYYIKAKKIKLLRDKDEVYAYEDVYIKNLKTGFEIRGSFAYVNMKKNKGYFLNAKGKFREFNFEAKKIEQLDKERFKVYEATVTTCPLDDKELYLCIFRANITKERALIFHNRLKFFKVPIFYLPVYLIPLGGRKTGFLMPTIGSSTYSSFIYIQPFFWAISRDKDMTITADYRKDQMKGLSLEYRQAFDEESDLITQFSLYKEDKKKGDWWKGREMYRENRFRIFMKYRKKPFKIGVEELSDPYYYEDISFKQEEITKPYTKTYLIYEKETKNYLFYFQTVRYRDLTEEKNNAVNLLPEASFHLKPFYYKGFNFSLDSSFTNFYRNYDGSFMRISLEPTVGKYFELFKVSNYSSLTLINRYYPDSEEDKIVSTFRFRHSVPQYFSLSYGGFKFKNFLEGLYTFSPKDYEVQIFDYQDELNEENNFQFTLVGNLYKNRKLMDYFLNTGYNLLGSYTFPTDGKKIDKKLLPLYYNVSVYPVENVRFWQDAVYDFNLGVFARNVIGTDISWKNFSVGISNSVYKNSEKKVTTDQIALNLKYSGDKFFSGISLNYDRLVDKETYRNVYVGVKGKCWSLVLDYKRNYYRNRDEYVDQVFLRFNLFFKEEIEIPLRR”, the “soluble on expression in E. coli” value is reported as “not soluble”. For “MALNLKQRLEQKFEEEIRFFKGMVSQPKKVGAIVPTSSITAKKMASVINPHSGLPVLELGPGTGVITKAILARGIKPESLTAIEYSTDFYNQLLRSYPGVNFVNGDAFDLDATLGEHKGQMFDSVISAVPMLNFPMAARIKLLDELLKRVPHGRPVVQISYGPISPIVAQPHLYHIRHFDFIVRNIPPAQLWTYTRALEHHHHHH”, the “soluble on expression in E. coli” value was “not soluble”. In the case of “MALQNISQNDFALHVQKAEQKSFMQTLEMAKLLSKRGFTLNYIAWLENGTIEISAILYSMPMTGGRYFEINCGPVVTRDKHLTDFYRELKDYVKEKGALELVIKPYDTYQTFDGDGQATSAEKKELISQLTNLGYHFDGLQRDYPNGEPDWHYVKDLSDISEQTLLKSFSKKGRPLVKKAKTFGTKLRRLNRDELNLFKEITSATSDRREYSDKSLDYYQDFYDSFGNNAEFMIASLNFENYLSHLQRDQNKLGNKIAKLQADLEKNPHSEKKQNQLRELSSQFDTFTTRQEEAQKFITKYGKKDVILAGSLFVYTPQEAVYLFSGSYPEFNKFYAPALLQEHVMLEALKRGISFYNLLGITGHFDNSDGVLRFKQNFNGYIVRKMGTFHYYPNPLKYRLLNTIKKILRR”, the “soluble on expression in E. coli” value is reported as “not soluble”. In the case of “MALRLAVSSALRPALNSQVRNASSAVSVKDVLASAPQAEVTTLKNGFRVVTEDNGSATATVGVWIETGSRFENEKNNGVAHFLERLIHKGTGKRASAALESELNAIGAKLNSFTERDQTAVFVQAGAQDVEKVVDILADVLRNSKLEASTIDTERVNLLKELEASDDYHQLVLFDMLHAAGFQGTPLALSVLGTSESIPNISAQQLKEWQEDHYRPVRMVLSAVGGGVSNVSSLADKYFGDLSNEYPRKVPQVDGTRFTGSEYRYRNDNVPHMYAAFAVEGVGYAHKDALALQIANQFIGQWDVTHATSRTAASRLVQKIGHDHGVHNLQHFNINYKDTGLFGIYFVADAHDLNDTSGIMKSVAHEWKHLASAATEEEVAMAKNQFRTNLYQNLETNTQKAGFNAKELLYTGNLRQLSELEAQIQKVDAGAVREAISRHVYDRDLAAVGVGRTEAFPNYALTRAGMSWWRM”, the “soluble on expression in E. coli” value is reported as “not soluble”.
